Measured values published in IntAct's records for PubMed 16990850.

B1: Serine/threonine-protein kinase/endoribonuclease IRE1 (Saccharomyces cerevisiae), P32361 (parent)
chain: MRLLRRNMLVLTLLVCVFSSIISCSIPLSSRTSRRQIVEDEVASTKKLNFNYGVDKNINSPIPAPRTTEGLPNMKLSSYPTPNLLNTADNRRANKKGRRAANSISVPYLENRSLNELSLSDILIAADVEGGLHAVDRRNGHIIWSIEPENFQPLIEIQEPSRLETYETLIIEPFGDGNIYYFNAHQGLQKLPLSIRQLVSTSPLHLKTNIVVNDSGKIVEDEKVYTGSMRTIMYTINMLNGEIISAFGPGSKNGYFGSQSVDCSPEEKIKLQECENMIVIGKTIFELGIHSYDGASYNVTYSTWQQNVLDVPLALQNTFSKDGMCIAPFRDKSLLASDLDFRIARWVSPTFPGIIVGLFDVFNDLRTNENILVPHPFNPGDHESISSNKVYLDQTSNLSWFALSSQNFPSLVESAPISRYASSDRWRVSSIFEDETLFKNAIMGVHQIYNNEYDHLYENYEKTNSLDTTHKYPPLMIDSSVDTTDLHQNNEMNSLKEYMSPEDLEAYRKKIHEQISRELDEKNQNSLLLKFGSLVYRIIETGVFLLLFLIFCAILQRFKILPPLYVLLSKIGFMPEKEIPIVESKSLNCPSSSENVTKPFDMKSGKQVVFEGAVNDGSLKSEKDNDDADEDDEKSLDLTTEKKKRKRGSRGGKKGRKSRIANIPNFEQSLKNLVVSEKILGYGSSGTVVFQGSFQGRPVAVKRMLIDFCDIALMEIKLLTESDDHPNVIRYYCSETTDRFLYIALELCNLNLQDLVESKNVSDENLKLQKEYNPISLLRQIASGVAHLHSLKIIHRDLKPQNILVSTSSRFTADQQTGAENLRILISDFGLCKKLDSGQSSFRTNLNNPSGTSGWRAPELLEESNNLQCQVETEHSSSRHTVVSSDSFYDPFTKRRLTRSIDIFSMGCVFYYILSKGKHPFGDKYSRESNIIRGIFSLDEMKCLHDRSLIAEATDLISQMIDHDPLKRPTAMKVLRHPLFWPKSKKLEFLLKVSDRLEIENRDPPSALLMKFDAGSDFVIPSGDWTVKFDKTFMDNLERYRKYHSSKLMDLLRALRNKYHHFMDLPEDIAELMGPVPDGFYDYFTKRFPNLLIGVYMIVKENLSDDQILREFLYS
partner: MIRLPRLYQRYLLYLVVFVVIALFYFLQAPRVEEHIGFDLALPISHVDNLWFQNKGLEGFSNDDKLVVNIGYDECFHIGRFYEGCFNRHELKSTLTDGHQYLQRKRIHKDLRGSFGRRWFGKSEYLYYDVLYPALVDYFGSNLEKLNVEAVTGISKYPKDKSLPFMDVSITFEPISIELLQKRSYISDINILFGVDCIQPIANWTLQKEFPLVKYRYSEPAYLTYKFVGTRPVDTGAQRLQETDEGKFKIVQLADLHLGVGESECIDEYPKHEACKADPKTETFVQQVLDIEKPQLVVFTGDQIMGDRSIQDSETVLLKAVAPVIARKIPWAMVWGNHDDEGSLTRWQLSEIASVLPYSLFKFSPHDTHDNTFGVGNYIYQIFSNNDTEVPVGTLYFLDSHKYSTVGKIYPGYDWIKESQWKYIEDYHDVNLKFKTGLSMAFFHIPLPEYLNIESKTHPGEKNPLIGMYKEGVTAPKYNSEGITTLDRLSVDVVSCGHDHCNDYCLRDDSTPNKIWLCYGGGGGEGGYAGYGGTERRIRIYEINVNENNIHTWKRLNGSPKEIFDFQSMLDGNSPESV

Variants of: B1
Conditions: with dcr2_yeast DCR2, Q05924
For S840A, the “effect of a mutation on the interaction” value was “increasing interaction”.
In the case of S841A, the “effect of a mutation on the interaction” value is reported as “increasing interaction”.
